Where a SMILES comes first, the peptide text is derived from it. [ ]: non-standard residue; d: D form. Dolaproine = CO[C@@H]([C@@H]1CCCN1)[C@@H](C)C(=O)O; Dil = CC[C@H](C)[C@H](NC)[C@@H](CC(=O)O)OC; NMeV = CN[C@H](C(=O)O)C(C)C
How the values were obtained:
[1] = system: BT474 human breast carcinoma xenografts; assay: Tumour growth inhibition or eradication in BT474 xenograft model; type: in vivo; conditions: free payload treated group
Method: Mice. […] The animals were fed ad libitum water (reverse osmosis, 1 ppm Cl), and NIH 31 Modified and Irradiated Lab Diet® consisting of 18.0% crude protein, 5.0% crude fat, and 5.0% crude fiber. The mice were housed on irradiated Enrich-o'cobs™ Laboratory Animal Bedding in static microisolators on a 12-hour light cycle at 20-22° C. (68-72° F.) and 40-60% humidity. Charles River Discovery Services North Carolina (CR Discovery Services, who carried out this contracted R&D) specifically complies with the recommendations of the Guide for Care and Use of Laboratory Animals with respect to restraint, husbandry, surgical procedures, feed and fluid regulation, and veterinary care.
Tumor weight may be estimated with the assumption that 1 mg is equivalent to 1 mm^3 of tumor volume.

[2] = Plasma pharmacokinetics in BALB/c mice (ELISA, total antibody and total ADC); type: in vivo, mouse; conditions: for Elimination half-life (hrs) Total Antibody: plasma ELISA
Method: Mice. Female BALB/c mice (BALB/cAnNCrl, Charles River) were eight weeks old with body weights ranging from 15.9 to 21.9 grams at the beginning of the study. The animals were fed ad libitum water (reverse osmosis, 1 ppm Cl) and NIH 31 Modified and Irradiated Lab Diet® consisting of 18.0% crude protein, 5.0% crude fat, and 5.0% crude fiber. The mice were housed on irradiated Enrich-o'cobs™ Laboratory Animal Bedding in static microisolators on a 12-hour light cycle at 20-22° C. (68-72° F.) and at 40-60% humidity. Charles River Discovery Services North Carolina (CR Discovery Services, who carried out this contracted R&D) specifically complies with the recommendations of the Guide for Care and Use of Laboratory Animals with respect to restraint, husbandry, surgical procedures, feed and fluid regulation, and veterinary care. The Animal Care and Use program at CR Discovery Services is accredited by the Association for Assessment and Accreditation of Laboratory Animal Care International, which assures compliance with accepted standards for the care and use of laboratory animals.
Therapeutic (test) Agents. All test agents were supplied as ready-to-dose dosing solutions. All dosing solutions were stored at 4° C. until dosed. All treatments were administered in a dosing volume scaled to the body weights of the individual animals to obtain the dosing concentration described in the treatment tables.
Treatment (mice). On Day 1 of the study, mice were divided into groups each consisting of eighteen mice (per test agent being evaluated), and dosing was initiated according to the treatment plan summarized in the treatment tables. All doses were administered intravenously (i.v.) by tail vein injection as described in the tables below.
Endpoint. The study endpoint occurred after the last sampling point, typically on Day 2 or 4, twenty-four or seventy-two hours post dose.
Sampling (mice). Blood (full blood volume) was collected from three animals per treatment group per timepoint. Samples were collected from all animals via terminal cardiac puncture under isoflurane anesthesia. Once collected, blood samples were collected into collection tubes containing lithium heparin or K2EDTA as anticoagulants and were processed for plasma at each timepoint. Each plasma sample was stored at −80° C. until used for analysis.
Quantification of test agents in plasma. An ELISA was carried out as described in Example 31 The detecting antibodies were (a) Anti-T7 tag to detect the scFv (total antibody), (b) Anti-Human Fab-specific to detect trastuzumab (total antibody), (c) Anti-MMAF (Concortis), Anti-MMAE (Concortis), anti-DM1
(Concortis) and anti-cemadotin (in-house mouse monoclonal antibody, Example 33 that also recognised P5C5 and AuristatinF), total ADC. The reference test agents were used to construct a calibration curve for which the plasma samples were compared to, in order to quantify the amount present. The concentration was plotted against time (average of three animals with standard error) and fitted to a 2-phase decay curve using GraphPad Prism to derive kinetic parameters.

[3] = Concentration reached and storage stability of purified conjugates in buffer; type: physicochemical
[4] = biological target: HER2 (Homo sapiens, UniProt P04626); assay: Biacore SPR binding to immobilised HER2
Method: The binding affinity against immobilised HER2 target antigen was determined by Biacore SPR compared to the unmodified scFv on a Biacore T200. A standard amine-coupling method was used to prepare all Biacore surfaces (CM5 or CM3), as follows. Flow cells were activated individually by injecting a freshly mixed solution of 0.2M EDC in 0.05 M NHS at 30 μl/min. […] Excess NHS ester was deactivated using a 1 M ethanolamine solution. To measure the kinetics of the antibody and conjugate on the HER2 chip, a […] serial dilution (typically at 5, 2.5, 1.25, 0.6 μg/ml or lower for free antibody and 20, 10, 5, 2.5 μg/ml for the conjugates), was injected for 160 s at 30 μl/min, allowing a 900-s dissociation phase. The dissociation time was extended to 3600 s for the highest concentration. Surfaces were regenerated with 45 s injection of MgCl2 8M.
To evaluate binding ability, manual runs were performed at 30 μl/min with a 60 s injection of the desired compound followed by 60 s waiting time and a 45 s of regeneration at 10 μl/min using MgCl2 8M. All data was analysed using the software, BIAEvaluation.

[5] = Blood clearance of 125-I radiolabelled scFv/conjugates in mice; type: in vivo, mouse; conditions: total protein level by 125-I labelling, 10 μg i.v., BALB/c mice
Method: An scFv, optimised for lysine conjugation was prepared as described in Example 27 or 28 and conjugated (as described in Example 31) to an NHS-derived Cemadotin drug (compound 2). The average DAR was 5 for scFv-TCT-Cem-1 and 4 for scFv-TCT-Cem-2 as determined by SDS-PAGE and IEF gels. This was radiolabelled with Iodine-125 using sodium-125-Iodide (MP Biologicals) and Iodogen™ tubes (Thermo) according to the manufacturer's instructions.
Ten micrograms of radiolabelled scFv or conjugate were injected intravenously into the tail vein of a group of 4 BALB/c female mice (Harlan UK) per time point. At each time point, blood was collected by cardiac puncture under terminal anaesthesia from 4 mice and the spleens were removed by dissection. The radioactivity from the blood and spleen tissues was measured using a gamma counter and compared to the injected dose, correcting for tissue weight. The percentage-injected dose per gram of tissue was plotted over time and pharmacokinetic parameters determined by fitting to a bi-exponential clearance model. […] This is described by the exponential decay, double, four-parameter equation y=ae^−bx+ce^−dx, where the distribution phase clearance rate (t1/2 alpha) can be determined by In 2/b, and the elimination clearance rate (t1/2 beta) can be determined by In 2/d.

[6] = Blood clearance in mice by direct ADC/scFv detection ELISA; type: in vivo, mouse; conditions: BALB/c mice
Method: An anti-Cemadotin MAb was raised (Example 33) and used to follow the ADC in mouse blood, to determine the pharmacokinetic properties. Normal BALB/c mice, 6-8 weeks old were maintained in filtered cages until used. A single batch of material (scFv-TCT, scFv (TCT)-Cemadotin, DAR=5 or 8) were prepared as above (Example 31) and 0.1 mg was injected into groups of 20 mice that were sacrificed at 4 time points (5 mice analysed per time point). Around 0.5 ml of whole blood was removed by cardiac puncture into EDTA-tubes and the serum collected by centrifugation. The serum was diluted appropriately into PBS and analysed by ELISA on HER2 coated micro-titre plates (Example 11D), detecting either by anti-T7 Tag (total antibody) or anti-cemadotin (total ADC). Non-injected reference samples were used to create a calibration curve for a direct read-out of ADC/ScFv blood concentration.

[7] = Aggregation by HPLC size-exclusion chromatography; type: physicochemical; conditions: purified or analysed conjugate vs unconjugated antibody
Method: Aggregation can be tested by analytical size-exclusion HPLC measuring the percentage of high molecular weight material compared to the conjugate eluting at a retention time characteristic of a monomeric conjugate.
Typically, 20 μg of protein was injected for analytical runs and 300 μg for semi-preparative runs.

[8] = 0.1 mg injected, serum, anti-T7 tag detection

Q: For `CC[C@H](C)[C@@H]([C@@H](CC(=O)N1CCC[C@H]1[C@H](OC)[C@@H](C)C(=O)N[C@@H](Cc1ccccc1)C(=O)O)OC)N(C)C(=O)[C@@H](NC(=O)[C@@H](NC)C(C)C)C(C)C` [Free MMAF, monomethyl auristatin F, reference compound] (H-[NMeV]V[Dil][Dolaproine]F-OH), which “tumour growth (in words)” value [1] is on record?
A: grew rapidly

B1: scFv (TCT): anti-HER2 scFv: Tev cleavage site, C6.5, T7 tag; SEQ ID NO: 2 (protein)
scFv: SGSGGSGQVQLVQSGAEVKKPGESLKISCKGSGYSFTSYWIAWVRQMPGKGLEYMGLIYPGDSDTKYSPSFQGQVTISVDKSVSTAYLQWSSLKPSDSAVYFCARHDVGYCSSSNCAAWPEYFQHWGQGTLVTVSSGGGGSGGGGSGGGGSQSVLTQPPSVSAAPGQKVTISCSGSSSNIGNNYVSWYQQLPGTAPKLLIYGHTNRPAGVPDRFSGSKSGTSASLAISGFRSEDEADYYCAAWDDSLSGWVFGGGTKLTVLMASMTGGQQMG
modifications: Amino Acid sequence of cleaved TCT
Q: With B1 as the molecule, how does the “Bioavailability (blood exposure, AUC, 24 hrs)” value ([2]; mice, 1 × 5 mg/kg, mean AUC in anti-payload and anti-protein detection, Table 59) read?
A: 2.91 μghr/ml

Q: What about the “Elimination half-life (hrs) Total Antibody” value ([2]; mice, 1 × 5 mg/kg, Table 55) of the same molecule?
A: 2.78 h

Q: And the “Elimination half-life (hrs) Total Antibody” value ([2]; mice, 1 × 5 mg/kg, Table 59)?
A: 2.78 h

Q: What about the “plasma clearance (in words)” value ([2]; single i.v. dose, female BALB/c mice (5 mg/kg MMAF-C5, P5C5; 2 mg/kg AF-C5, DM1)) of the same molecule?
A: clears rapidly

Q: What about the “stability after multiple freeze-thaw cycles” value ([3]; Storage buffer 20 mM Sodium Acetate pH5, 150 mM NaCl) of the same molecule?
A: stable

Q: What about the association rate ([4]; immobilised HER2) of the same molecule?
A: 2.8e+06 M⁻¹ s⁻¹

Q: What about the dissociation rate ([4]; immobilised HER2) of the same molecule?
A: 0.00417 s⁻¹

Q: And the “t1/2 (alpha)” value [5]?
A: 0.4 h

Q: And the “t1/2 (beta)” value [5]?
A: 4.3 h

Q: And the “t1/2 (alpha), total antibody measured by anti-HER2 binding” value [6, 8]?
A: 0.4 h

Q: What about the “t1/2 (beta), total antibody measured by anti-HER2 binding” value [6, 8] of the same molecule?
A: 5.25 h

Q: What about the “blood clearance (in words)” value ([6]; measured directly) of the same molecule?
A: rapid blood clearance

B2: scFv (TCT)-Auristatin F-C5: scFv (TCT) conjugated with Auristatin-F-C5-NHS (compound 88), 30 equivalents, average DAR 8.5 (conjugate)
scFv: B1 scFv
Q: Which “time stable in the buffer” value ([3]; after purification and concentration) does the source give for B2 here?
A: several weeks

Q: What about the “concentration to which purified conjugates were concentrated” value ([3]; in buffer after SEC purification) of the same molecule?
A: ~600 µg/mL

Q: What about the “aggregation by HPLC-SEC (in words)” value [7] of the same molecule?
A: no aggregation

Q: What about the “binding function against immobilised HER2 (in words)” value ([4]; compared to unmodified scFv) of the same molecule?
A: verified
